Data taken from patent US20050064507A1, “Determining kinase specificity” (priority 2003, published 2005).

molecular target: T1, PKC-delta (Homo sapiens, UniProt Q05655); experiment: In vitro kinase assay: peptide phosphorylation by PKC-delta; type: biochemical; details: peptide concentration 1 uM
T1 construct: purchased Calbiochem
Summary of the method: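 Biotin-Lys-dansyl-Lys-Pro-Pro-Gly-linked proteomic peptides (12–21-residue core) phosphorylated by PKC-delta in HEPES/Triton/CaCl2/MgCl2 buffer with phosphatidyl serine and PMA, 100 μM [γ-32P]ATP, 30° C., ~10 min, stoichiometry ≤5%; streptavidin-plate capture. Signal normalized as % of best peptide substrate.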

T1 sequence (Q05655 whole entry): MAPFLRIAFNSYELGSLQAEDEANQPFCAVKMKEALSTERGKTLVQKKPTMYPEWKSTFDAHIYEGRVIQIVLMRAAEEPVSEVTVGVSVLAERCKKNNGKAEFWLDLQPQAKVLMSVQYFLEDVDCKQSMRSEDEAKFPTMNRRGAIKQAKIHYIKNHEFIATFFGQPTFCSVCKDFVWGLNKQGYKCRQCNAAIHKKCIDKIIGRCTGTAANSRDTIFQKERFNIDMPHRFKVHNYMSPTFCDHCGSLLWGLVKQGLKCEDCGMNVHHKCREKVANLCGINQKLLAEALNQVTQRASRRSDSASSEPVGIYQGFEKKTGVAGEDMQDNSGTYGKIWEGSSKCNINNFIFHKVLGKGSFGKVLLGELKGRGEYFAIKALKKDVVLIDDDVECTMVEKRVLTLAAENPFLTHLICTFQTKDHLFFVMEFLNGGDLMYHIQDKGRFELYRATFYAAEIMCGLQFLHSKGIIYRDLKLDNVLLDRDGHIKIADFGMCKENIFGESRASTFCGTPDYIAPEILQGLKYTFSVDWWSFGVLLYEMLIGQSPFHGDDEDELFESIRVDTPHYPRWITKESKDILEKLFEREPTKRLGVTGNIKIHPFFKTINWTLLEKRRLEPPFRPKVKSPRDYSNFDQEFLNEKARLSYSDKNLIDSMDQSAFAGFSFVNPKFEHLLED

Substance	phosphorylation by PKC-delta
123 (KKRFSFKKSFKLSGFSFKKN) [compound 123]	45
124 (PRLIRRGSKKRPAR) [compound 124]	69
125 (PLKEKKRERKTSSKSSVRKR) [compound 125]	46
126 (KAIKAIEGGQKFARKSTRRS) [compound 126]	47
127 (SQVQKQRSAGSFKRNSIKKI) [compound 127]	52
128 (QQVDRERPHVRRRRGTFKRS) [compound 128]	46
129 (VQRHRSMRKTFARYLSFRRD) [compound 129]	32
130 (EYLERRASRRRAV) [compound 130]	46
131 (WKGKRRSKARKKRK) [compound 131]	38
132 (GFLNEPLSSKSQRRKSLKLK) [compound 132]	41
133 (LEKRGMLGKRPRRKSSRRKK) [compound 133]	46
134 (RSRSRSRSKSKDKRKSRKRS) [compound 134]	44
135 (KKKFRTPSFLKKSKK) [compound 135]	40
136 (RARRDSLKKIEIW) [compound 136]	41
137 (PSKSPSKKKKKFRTPSFLKK) [compound 137]	38
138 (EYLERRASRRRAV) [compound 138]	49
139 (RPTPGDGEKRSRIKKSKKRK) [compound 139]	31
140 (TELEGGFSRQRKRKLSFRRR) [compound 140]	44

same assay, conditions: peptide concentration 10 uM

Substance	phosphorylation by PKC-delta
123 (KKRFSFKKSFKLSGFSFKKN) [compound 123]	22
124 (PRLIRRGSKKRPAR) [compound 124]	43
125 (PLKEKKRERKTSSKSSVRKR) [compound 125]	36
126 (KAIKAIEGGQKFARKSTRRS) [compound 126]	43
127 (SQVQKQRSAGSFKRNSIKKI) [compound 127]	33
128 (QQVDRERPHVRRRRGTFKRS) [compound 128]	57
129 (VQRHRSMRKTFARYLSFRRD) [compound 129]	14
130 (EYLERRASRRRAV) [compound 130]	20
131 (WKGKRRSKARKKRK) [compound 131]	29
132 (GFLNEPLSSKSQRRKSLKLK) [compound 132]	47
133 (LEKRGMLGKRPRRKSSRRKK) [compound 133]	52
134 (RSRSRSRSKSKDKRKSRKRS) [compound 134]	16
135 (KKKFRTPSFLKKSKK) [compound 135]	25
136 (RARRDSLKKIEIW) [compound 136]	23
137 (PSKSPSKKKKKFRTPSFLKK) [compound 137]	16
138 (EYLERRASRRRAV) [compound 138]	28
139 (RPTPGDGEKRSRIKKSKKRK) [compound 139]	24
140 (TELEGGFSRQRKRKLSFRRR) [compound 140]	49

molecular target: T2, PKC-theta (Homo sapiens, UniProt Q04759); experiment: In vitro kinase assay: peptide phosphorylation by PKC-theta; type: biochemical; details: peptide concentration 1 uM
T2 construct: His-tag; made in house; host or cells: baculovirus-infected Sf9 cells
T2 sequence (Q04759 whole entry): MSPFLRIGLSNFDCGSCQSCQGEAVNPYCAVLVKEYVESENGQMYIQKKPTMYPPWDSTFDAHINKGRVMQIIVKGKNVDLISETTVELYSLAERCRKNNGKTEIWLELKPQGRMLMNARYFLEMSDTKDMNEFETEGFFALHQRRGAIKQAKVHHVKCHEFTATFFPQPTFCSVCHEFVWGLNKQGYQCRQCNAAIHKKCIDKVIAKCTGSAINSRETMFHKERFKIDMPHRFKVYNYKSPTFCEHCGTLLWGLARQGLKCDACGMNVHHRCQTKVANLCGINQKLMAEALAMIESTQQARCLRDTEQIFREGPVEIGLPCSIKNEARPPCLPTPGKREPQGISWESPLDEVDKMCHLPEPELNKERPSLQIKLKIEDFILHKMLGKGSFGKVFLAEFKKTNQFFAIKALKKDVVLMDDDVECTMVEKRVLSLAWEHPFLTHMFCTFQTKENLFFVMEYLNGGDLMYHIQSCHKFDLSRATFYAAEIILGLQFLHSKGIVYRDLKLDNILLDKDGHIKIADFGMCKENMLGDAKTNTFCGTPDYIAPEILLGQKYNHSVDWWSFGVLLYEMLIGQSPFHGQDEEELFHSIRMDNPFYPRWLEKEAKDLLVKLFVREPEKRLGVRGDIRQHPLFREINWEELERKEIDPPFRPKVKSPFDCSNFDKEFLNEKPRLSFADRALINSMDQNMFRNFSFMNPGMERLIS
Summary of the method: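 Recombinant human PKC-theta, expressed in baculovirus-infected Sf9 cells and purified on a nickel chelating column, was incubated with biotinylated peptides, 100 μM ATP containing ^32P-gamma ATP, and PKC buffer with CaCl2, MgCl2, phosphatidyl serine and PMA at 30° C. Reactions were stopped with ATP/EDTA. Peptides were captured on streptavidin-coated plates, and phosphorylation was normalized to the best substrate.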

Substance	phosphorylation by PKC theta
123 (KKRFSFKKSFKLSGFSFKKN) [compound 123]	47
124 (PRLIRRGSKKRPAR) [compound 124]	53
125 (PLKEKKRERKTSSKSSVRKR) [compound 125]	39
126 (KAIKAIEGGQKFARKSTRRS) [compound 126]	46
127 (SQVQKQRSAGSFKRNSIKKI) [compound 127]	45
128 (QQVDRERPHVRRRRGTFKRS) [compound 128]	41
129 (VQRHRSMRKTFARYLSFRRD) [compound 129]	48
130 (EYLERRASRRRAV) [compound 130]	38
131 (WKGKRRSKARKKRK) [compound 131]	53
132 (GFLNEPLSSKSQRRKSLKLK) [compound 132]	34
133 (LEKRGMLGKRPRRKSSRRKK) [compound 133]	46
134 (RSRSRSRSKSKDKRKSRKRS) [compound 134]	36
135 (KKKFRTPSFLKKSKK) [compound 135]	30
136 (RARRDSLKKIEIW) [compound 136]	42
137 (PSKSPSKKKKKFRTPSFLKK) [compound 137]	40
138 (EYLERRASRRRAV) [compound 138]	34
139 (RPTPGDGEKRSRIKKSKKRK) [compound 139]	31
140 (TELEGGFSRQRKRKLSFRRR) [compound 140]	25

same assay, conditions: peptide concentration 10 uM

Substance	phosphorylation by PKC theta
123 (KKRFSFKKSFKLSGFSFKKN) [compound 123]	32
124 (PRLIRRGSKKRPAR) [compound 124]	57
125 (PLKEKKRERKTSSKSSVRKR) [compound 125]	100
126 (KAIKAIEGGQKFARKSTRRS) [compound 126]	45
127 (SQVQKQRSAGSFKRNSIKKI) [compound 127]	58
128 (QQVDRERPHVRRRRGTFKRS) [compound 128]	59
129 (VQRHRSMRKTFARYLSFRRD) [compound 129]	25
130 (EYLERRASRRRAV) [compound 130]	44
131 (WKGKRRSKARKKRK) [compound 131]	35
132 (GFLNEPLSSKSQRRKSLKLK) [compound 132]	40
133 (LEKRGMLGKRPRRKSSRRKK) [compound 133]	53
134 (RSRSRSRSKSKDKRKSRKRS) [compound 134]	16
135 (KKKFRTPSFLKKSKK) [compound 135]	36
136 (RARRDSLKKIEIW) [compound 136]	28
137 (PSKSPSKKKKKFRTPSFLKK) [compound 137]	19
138 (EYLERRASRRRAV) [compound 138]	39
139 (RPTPGDGEKRSRIKKSKKRK) [compound 139]	17
140 (TELEGGFSRQRKRKLSFRRR) [compound 140]	35
